Test results reported in US20060063715A1.

Molecular target: TAG-72 antigen (tumor-associated glycoprotein 72) (human)
Assay: competition RIA against 125I-labeled CC49 IgG (competitor), TAG-72 in a human breast carcinoma extract

Q: With “CC49/212 single-chain antigen-binding protein (monomer) (scFv)” as the substance, how does the fold higher protein concentration needed to displace the labeled CC49 IgG (against unlabeled CC49 IgG and bivalent CC49/212) read?
A: Its fold higher protein concentration needed to displace the labeled CC49 IgG (against unlabeled CC49 IgG and bivalent CC49/212) is 10 fold.
